In paper PMC9482650, “Quantitative fragmentomics allow affinity mapping of interactomes” (Nature Communications, 2022):

Experiments:
Test in all cases: holdup assay
Parameters in all cases: key: below the threshold = too weak to quantify, mostly under pKd 3.1 to 4
DFNB31_2, Q9P202 = biological target: T1, DFNB31_2, Q9P202
T1 sequence (Q9P202 274-371, limits assumed, looked up): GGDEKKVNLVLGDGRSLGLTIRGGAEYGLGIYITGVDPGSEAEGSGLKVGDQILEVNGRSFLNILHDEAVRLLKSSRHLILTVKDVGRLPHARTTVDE

DLG1_3, Q12959 = biological target: DLG1_3, Q12959
DLG3_3, Q92796 = biological target: T2, DLG3_3, Q92796
T2 sequence (Q92796 374-475, limits assumed, looked up): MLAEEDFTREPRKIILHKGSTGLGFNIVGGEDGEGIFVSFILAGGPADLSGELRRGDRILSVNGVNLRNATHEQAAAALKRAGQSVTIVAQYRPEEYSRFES

DLG4_1, P78352 = biological target: DLG4_1, P78352
DLG4_3, P78352 = biological target: DLG4_3, P78352
FRMPD2_2, Q68DX3 = biological target: FRMPD2_2, Q68DX3
GORASP1, Q9BQQ3 = biological target: GORASP1, Q9BQQ3
GRID2IP_1, A4D2P6 = biological target: GRID2IP_1, A4D2P6
GRIP1_5, Q9Y3R0 = biological target: T3, GRIP1_5, Q9Y3R0
T3 sequence (Q9Y3R0 568-668, limits assumed, looked up): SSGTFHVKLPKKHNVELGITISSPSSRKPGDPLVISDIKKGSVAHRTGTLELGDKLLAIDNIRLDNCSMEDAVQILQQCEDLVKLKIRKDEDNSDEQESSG

IL16_1, Q14005 = biological target: IL16_1, Q14005
Inadl_6, Q8NI35 = biological target: Inadl_6, Q8NI35
Inadl_8, Q8NI35 = biological target: Inadl_8, Q8NI35
LNX2_2, Q8N448 = biological target: T4, LNX2_2, Q8N448
T4 sequence (Q8N448 334-432, limits assumed, looked up): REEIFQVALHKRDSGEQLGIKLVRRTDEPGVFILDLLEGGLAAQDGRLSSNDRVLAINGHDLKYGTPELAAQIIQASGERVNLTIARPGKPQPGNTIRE

MAGI2_2, Q86UL8 = biological target: MAGI2_2, Q86UL8
MAGI2_6, Q86UL8 = biological target: MAGI2_6, Q86UL8
MPP2, Q14168 = biological target: T5, MPP2, Q14168
T5 sequence (Q14168 180-250, limits assumed, looked up): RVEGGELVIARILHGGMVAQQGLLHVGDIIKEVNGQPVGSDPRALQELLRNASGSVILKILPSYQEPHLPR

NHERF3_1, Q5T2W1 = biological target: T6, NHERF3_1, Q5T2W1
T6 sequence (Q5T2W1 4-100, limits assumed, looked up): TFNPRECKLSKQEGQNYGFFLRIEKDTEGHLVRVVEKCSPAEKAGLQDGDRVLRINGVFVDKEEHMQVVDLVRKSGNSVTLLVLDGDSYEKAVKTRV

NHERF3_3, Q5T2W1 = biological target: T7, NHERF3_3, Q5T2W1
T7 sequence (Q5T2W1 238-333, limits assumed, looked up): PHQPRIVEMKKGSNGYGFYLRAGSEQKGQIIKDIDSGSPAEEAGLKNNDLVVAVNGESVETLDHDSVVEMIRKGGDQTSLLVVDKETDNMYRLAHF

NHERF4_1, Q86UT5-2 = biological target: NHERF4_1, Q86UT5-2
NOS1, P29475 = biological target: NOS1, P29475
PCLO, Q9Y6V0 = biological target: T8, PCLO, Q9Y6V0
T8 sequence (Q9Y6V0 4491-4600, limits assumed, looked up): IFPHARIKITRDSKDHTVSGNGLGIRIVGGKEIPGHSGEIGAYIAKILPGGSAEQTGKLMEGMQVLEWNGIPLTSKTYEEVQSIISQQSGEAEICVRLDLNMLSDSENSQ

PICK1, Q9NRD5 = biological target: PICK1, Q9NRD5
PTPN3, P26045 = biological target: PTPN3, P26045
SHANK1, Q9Y566 = biological target: T9, SHANK1, Q9Y566
T9 sequence (Q9Y566 658-767, limits assumed, looked up): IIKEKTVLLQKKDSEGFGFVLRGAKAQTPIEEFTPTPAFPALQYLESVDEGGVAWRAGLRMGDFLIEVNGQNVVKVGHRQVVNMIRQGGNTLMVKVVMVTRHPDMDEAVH

TIAM2, Q8IVF5 = biological target: T10, TIAM2, Q8IVF5
T10 sequence (Q8IVF5 885-986, limits assumed, looked up): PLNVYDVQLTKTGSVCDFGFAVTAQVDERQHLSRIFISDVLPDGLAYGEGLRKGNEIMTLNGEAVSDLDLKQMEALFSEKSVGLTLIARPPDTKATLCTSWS

TJP1_3, Q07157 = biological target: TJP1_3, Q07157
TJP3_3, O95049 = biological target: T11, TJP3_3, O95049
T11 sequence (O95049 375-456, limits assumed, looked up): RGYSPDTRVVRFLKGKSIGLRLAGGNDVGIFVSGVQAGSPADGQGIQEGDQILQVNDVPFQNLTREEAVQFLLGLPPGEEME

[1] = modified: phospho on T at position -2 from the C-terminal residue
[2] = plain residues with an end cap or a label only (N-terminal biotin on a linker: ado-ado)

Sequence of FRMPD2_2, Q68DX3 (Q68DX3 944-1038): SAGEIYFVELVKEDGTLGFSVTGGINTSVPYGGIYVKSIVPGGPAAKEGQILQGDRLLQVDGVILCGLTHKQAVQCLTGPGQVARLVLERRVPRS
Sequence of Inadl_8, Q8NI35 (Q8NI35 1425-1530): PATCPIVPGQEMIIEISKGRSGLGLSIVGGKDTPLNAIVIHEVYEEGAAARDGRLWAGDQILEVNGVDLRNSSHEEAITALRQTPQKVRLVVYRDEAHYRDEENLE
Sequence of DLG1_3, Q12959 (Q12959 457-571): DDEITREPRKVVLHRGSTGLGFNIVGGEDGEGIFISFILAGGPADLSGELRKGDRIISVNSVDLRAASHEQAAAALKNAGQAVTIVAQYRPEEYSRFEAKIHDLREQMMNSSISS
Sequence of PTPN3, P26045 (P26045 505-587): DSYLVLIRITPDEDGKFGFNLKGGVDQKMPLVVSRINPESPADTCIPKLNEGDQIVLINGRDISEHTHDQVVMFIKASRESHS
Sequence of GRID2IP_1, A4D2P6 (A4D2P6 1-87): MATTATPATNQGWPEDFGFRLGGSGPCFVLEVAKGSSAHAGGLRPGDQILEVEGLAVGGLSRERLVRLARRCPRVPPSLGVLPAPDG
Sequence of GORASP1, Q9BQQ3 (Q9BQQ3 1-208): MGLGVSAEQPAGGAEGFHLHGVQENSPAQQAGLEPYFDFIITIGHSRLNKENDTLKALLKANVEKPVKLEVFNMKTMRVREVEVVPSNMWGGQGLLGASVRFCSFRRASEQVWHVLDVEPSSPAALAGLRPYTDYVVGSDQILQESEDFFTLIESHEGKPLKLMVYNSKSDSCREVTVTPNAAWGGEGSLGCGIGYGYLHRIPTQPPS
Sequence of Inadl_6, Q8NI35 (Q8NI35 1058-1167): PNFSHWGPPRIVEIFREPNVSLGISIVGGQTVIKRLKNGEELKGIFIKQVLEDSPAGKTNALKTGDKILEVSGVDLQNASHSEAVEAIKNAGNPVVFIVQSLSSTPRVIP
Sequence of DLG4_3, P78352 (P78352 306-403): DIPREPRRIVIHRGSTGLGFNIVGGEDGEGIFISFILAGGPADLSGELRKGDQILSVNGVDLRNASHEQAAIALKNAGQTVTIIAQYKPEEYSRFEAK
Sequence of NOS1, P29475 (P29475 9-101): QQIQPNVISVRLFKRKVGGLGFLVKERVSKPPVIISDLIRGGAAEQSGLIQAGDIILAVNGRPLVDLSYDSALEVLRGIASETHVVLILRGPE
Sequence of NHERF4_1, Q86UT5-2 (Q86UT5 other isoform, or with tags, fused parts or gaps): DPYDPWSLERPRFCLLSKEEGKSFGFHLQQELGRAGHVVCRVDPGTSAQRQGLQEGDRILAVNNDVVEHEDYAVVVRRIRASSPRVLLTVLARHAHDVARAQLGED
Sequence of PICK1, Q9NRD5 (Q9NRD5 17-115): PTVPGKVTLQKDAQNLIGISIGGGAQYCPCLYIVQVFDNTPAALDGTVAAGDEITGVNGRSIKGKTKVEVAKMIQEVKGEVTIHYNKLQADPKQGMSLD
Sequence of TJP1_3, Q07157 (Q07157 416-512): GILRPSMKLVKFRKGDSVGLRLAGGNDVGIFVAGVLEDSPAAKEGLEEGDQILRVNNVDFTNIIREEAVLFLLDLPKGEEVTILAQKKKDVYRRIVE
Sequence of MAGI2_2, Q86UL8 (Q86UL8 410-522): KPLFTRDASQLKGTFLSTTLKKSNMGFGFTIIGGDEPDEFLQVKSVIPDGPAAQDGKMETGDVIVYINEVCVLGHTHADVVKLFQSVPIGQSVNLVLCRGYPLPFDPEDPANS
Sequence of IL16_1, Q14005 (Q14005 210-306): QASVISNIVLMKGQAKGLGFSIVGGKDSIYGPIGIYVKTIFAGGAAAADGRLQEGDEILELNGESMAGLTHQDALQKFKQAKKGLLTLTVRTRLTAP
Sequence of DLG4_1, P78352 (P78352 62-152): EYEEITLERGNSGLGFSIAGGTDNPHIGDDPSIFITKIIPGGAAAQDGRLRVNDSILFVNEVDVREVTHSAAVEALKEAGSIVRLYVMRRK
Sequence of MAGI2_6, Q86UL8 (Q86UL8 1141-1229): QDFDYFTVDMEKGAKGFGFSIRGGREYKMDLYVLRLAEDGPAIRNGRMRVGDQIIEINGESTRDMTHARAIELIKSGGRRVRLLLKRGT

B1: HPV35-E6_-2P, P27228 (peptide)
chain: SKPTRRETEV
B1 was tested. Which pKd (DFNB31_2, Q9P202; [1]) did it give?
The pKd was “below the threshold”.

What about the pKd (DLG1_3, Q12959; [1]) of the same binder?
The pKd was “below the threshold”.

And the pKd (DLG3_3, Q92796; [1])?
The pKd was “below the threshold”.

And the pKd (DLG4_1, P78352; [1])?
The pKd was “below the threshold”.

What about the pKd (DLG4_3, P78352; [1]) of the same binder?
The pKd was “below the threshold”.

What about the pKd (FRMPD2_2, Q68DX3; [1]) of the same binder?
Its pKd is “below the threshold”.

And the pKd (GORASP1, Q9BQQ3; [1])?
The pKd was “below the threshold”.

What about the pKd (GRID2IP_1, A4D2P6; [1]) of the same binder?
Its pKd is “below the threshold”.

What about the pKd (GRIP1_5, Q9Y3R0; [1]) of the same binder?
Its pKd is “below the threshold”.

What about the pKd (IL16_1, Q14005; [1]) of the same binder?
Its pKd is “below the threshold”.

What about the pKd (Inadl_6, Q8NI35; [1]) of the same binder?
Its pKd is “below the threshold”.

What about the pKd (Inadl_8, Q8NI35; [1]) of the same binder?
Its pKd is “below the threshold”.

What about the pKd (LNX2_2, Q8N448; [1]) of the same binder?
Its pKd is “below the threshold”.

And the pKd (MAGI2_2, Q86UL8; [1])?
The pKd was “below the threshold”.

And the pKd (MAGI2_6, Q86UL8; [1])?
The pKd was “below the threshold”.

And the pKd (MPP2, Q14168; [1])?
Its pKd is “below the threshold”.

And the pKd (NHERF3_1, Q5T2W1; [1])?
The pKd was “below the threshold”.

What about the pKd (NHERF3_3, Q5T2W1; [1]) of the same binder?
The pKd was “below the threshold”.

What about the pKd (NHERF4_1, Q86UT5-2; [1]) of the same binder?
The pKd was 3.6.

And the pKd (NOS1, P29475; [1])?
The pKd was “below the threshold”.

And the pKd (PCLO, Q9Y6V0; [1])?
Its pKd is “below the threshold”.

What about the pKd (PICK1, Q9NRD5; [1]) of the same binder?
The pKd was “below the threshold”.

What about the pKd (PTPN3, P26045; [1]) of the same binder?
Its pKd is 3.98.

What about the pKd (SHANK1, Q9Y566; [1]) of the same binder?
Its pKd is “below the threshold”.

And the pKd (TIAM2, Q8IVF5; [1])?
The pKd was “below the threshold”.

And the pKd (TJP1_3, Q07157; [1])?
The pKd was “below the threshold”.

And the pKd (TJP3_3, O95049; [1])?
The pKd was “below the threshold”.

B2: OR10G3, Q8NGC4 (peptide)
chain: LRSPRTPSEV
How did the pKd (DFNB31_2, Q9P202; [2]) turn out when B2 was run?
Its pKd is “below the threshold”.

And the pKd (DLG1_3, Q12959; [2])?
Its pKd is “below the threshold”.

And the pKd (DLG3_3, Q92796; [2])?
Its pKd is “below the threshold”.

And the pKd (DLG4_1, P78352; [2])?
Its pKd is 3.49.

What about the pKd (DLG4_3, P78352; [2]) of the same binder?
The pKd was “below the threshold”.

And the pKd (FRMPD2_2, Q68DX3; [2])?
Its pKd is “below the threshold”.

And the pKd (GORASP1, Q9BQQ3; [2])?
Its pKd is “below the threshold”.

What about the pKd (GRID2IP_1, A4D2P6; [2]) of the same binder?
The pKd was “below the threshold”.

And the pKd (GRIP1_5, Q9Y3R0; [2])?
The pKd was “below the threshold”.

And the pKd (IL16_1, Q14005; [2])?
The pKd was “below the threshold”.

And the pKd (Inadl_6, Q8NI35; [2])?
The pKd was “below the threshold”.

And the pKd (Inadl_8, Q8NI35; [2])?
Its pKd is 4.18.

What about the pKd (LNX2_2, Q8N448; [2]) of the same binder?
Its pKd is “below the threshold”.

And the pKd (MAGI2_2, Q86UL8; [2])?
Its pKd is 4.27.

What about the pKd (MAGI2_6, Q86UL8; [2]) of the same binder?
Its pKd is “below the threshold”.

And the pKd (MPP2, Q14168; [2])?
The pKd was “below the threshold”.

What about the pKd (NHERF3_1, Q5T2W1; [2]) of the same binder?
Its pKd is “below the threshold”.

And the pKd (NHERF3_3, Q5T2W1; [2])?
The pKd was 3.54.

And the pKd (NHERF4_1, Q86UT5-2; [2])?
The pKd was 3.63.

What about the pKd (NOS1, P29475; [2]) of the same binder?
The pKd was 3.76.

What about the pKd (PCLO, Q9Y6V0; [2]) of the same binder?
Its pKd is “below the threshold”.

What about the pKd (PICK1, Q9NRD5; [2]) of the same binder?
The pKd was “below the threshold”.

What about the pKd (PTPN3, P26045; [2]) of the same binder?
The pKd was 4.26.

What about the pKd (SHANK1, Q9Y566; [2]) of the same binder?
The pKd was “below the threshold”.

What about the pKd (TIAM2, Q8IVF5; [2]) of the same binder?
The pKd was “below the threshold”.

What about the pKd (TJP1_3, Q07157; [2]) of the same binder?
The pKd was “below the threshold”.

And the pKd (TJP3_3, O95049; [2])?
The pKd was “below the threshold”.

B3: EVI5, O60447 (peptide)
chain: RRRESYSTTV
Which results are given for B3?
pKd (DFNB31_2, Q9P202; [2]): below the threshold; pKd (DLG1_3, Q12959; [2]): 4.16; pKd (DLG3_3, Q92796; [2]): 4.28; pKd (DLG4_1, P78352; [2]): 5.79; pKd (DLG4_3, P78352; [2]): 4.44; pKd (FRMPD2_2, Q68DX3; [2]): 3.74; pKd (GORASP1, Q9BQQ3; [2]): 4.7; pKd (GRID2IP_1, A4D2P6; [2]): below the threshold; pKd (GRIP1_5, Q9Y3R0; [2]): below the threshold; pKd (IL16_1, Q14005; [2]): below the threshold; pKd (Inadl_6, Q8NI35; [2]): below the threshold; pKd (Inadl_8, Q8NI35; [2]): 4.06; pKd (LNX2_2, Q8N448; [2]): 5.2; pKd (MAGI2_2, Q86UL8; [2]): 5.15; pKd (MAGI2_6, Q86UL8; [2]): 3.77; pKd (MPP2, Q14168; [2]): below the threshold; pKd (NHERF3_1, Q5T2W1; [2]): 4.31; pKd (NHERF3_3, Q5T2W1; [2]): below the threshold; pKd (NHERF4_1, Q86UT5-2; [2]): below the threshold; pKd (NOS1, P29475; [2]): below the threshold; pKd (PCLO, Q9Y6V0; [2]): below the threshold; pKd (PICK1, Q9NRD5; [2]): 4.05; pKd (PTPN3, P26045; [2]): 4.31; pKd (SHANK1, Q9Y566; [2]): 4.36; pKd (TIAM2, Q8IVF5; [2]): below the threshold; pKd (TJP1_3, Q07157; [2]): below the threshold; pKd (TJP3_3, O95049; [2]): below the threshold
